Target: T1, recombinant human αvβ3 (human, UniProt P06756 31-992; P05106 27-718)
T1 construct: integrin αv, human; integrin β3, human; also called soluble αvβ3; recombinant αvβ3; source: bought: Calbiochem (Merck)
Experiment: ELISA; solid-phase direct binding assay: 96-well plates coated overnight with 10 μg/ml β43–63 or 0.5 μg/ml vitronectin, blocked with 5% BSA in PBS; recombinant αvβ3 incubated 1.5 h; detected with anti-αvβ3 antibody, anti-mouse-HRP and OPD, read at 450 nm; nonspecific binding to plastic subtracted
Settings: both partners purified

T1 sequence (P06756 31-992, chain 1 of 2): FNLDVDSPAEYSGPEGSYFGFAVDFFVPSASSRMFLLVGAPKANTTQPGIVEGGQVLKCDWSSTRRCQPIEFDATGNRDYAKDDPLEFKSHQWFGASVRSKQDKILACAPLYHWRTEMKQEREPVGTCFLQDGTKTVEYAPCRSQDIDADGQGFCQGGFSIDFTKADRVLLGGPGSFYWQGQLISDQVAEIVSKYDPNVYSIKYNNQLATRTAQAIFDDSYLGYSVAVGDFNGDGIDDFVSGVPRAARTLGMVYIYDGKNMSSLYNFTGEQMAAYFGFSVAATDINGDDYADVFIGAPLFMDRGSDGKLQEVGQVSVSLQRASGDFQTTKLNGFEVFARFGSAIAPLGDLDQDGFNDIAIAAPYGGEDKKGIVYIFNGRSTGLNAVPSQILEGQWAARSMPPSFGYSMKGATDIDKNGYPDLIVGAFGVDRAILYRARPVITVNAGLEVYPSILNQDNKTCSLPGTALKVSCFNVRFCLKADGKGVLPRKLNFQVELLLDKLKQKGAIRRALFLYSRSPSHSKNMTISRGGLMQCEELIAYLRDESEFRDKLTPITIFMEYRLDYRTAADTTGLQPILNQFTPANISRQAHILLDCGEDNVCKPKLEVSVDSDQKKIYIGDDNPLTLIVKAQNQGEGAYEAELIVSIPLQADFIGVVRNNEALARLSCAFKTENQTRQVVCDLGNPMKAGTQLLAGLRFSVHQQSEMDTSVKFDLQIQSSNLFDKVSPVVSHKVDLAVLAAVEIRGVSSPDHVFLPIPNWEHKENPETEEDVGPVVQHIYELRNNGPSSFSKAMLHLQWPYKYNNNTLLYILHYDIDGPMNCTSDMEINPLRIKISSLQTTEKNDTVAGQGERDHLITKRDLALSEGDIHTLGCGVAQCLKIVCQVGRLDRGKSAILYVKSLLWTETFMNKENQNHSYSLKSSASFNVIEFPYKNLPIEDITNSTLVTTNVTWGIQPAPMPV
T1 sequence (P05106 27-718, chain 2 of 2): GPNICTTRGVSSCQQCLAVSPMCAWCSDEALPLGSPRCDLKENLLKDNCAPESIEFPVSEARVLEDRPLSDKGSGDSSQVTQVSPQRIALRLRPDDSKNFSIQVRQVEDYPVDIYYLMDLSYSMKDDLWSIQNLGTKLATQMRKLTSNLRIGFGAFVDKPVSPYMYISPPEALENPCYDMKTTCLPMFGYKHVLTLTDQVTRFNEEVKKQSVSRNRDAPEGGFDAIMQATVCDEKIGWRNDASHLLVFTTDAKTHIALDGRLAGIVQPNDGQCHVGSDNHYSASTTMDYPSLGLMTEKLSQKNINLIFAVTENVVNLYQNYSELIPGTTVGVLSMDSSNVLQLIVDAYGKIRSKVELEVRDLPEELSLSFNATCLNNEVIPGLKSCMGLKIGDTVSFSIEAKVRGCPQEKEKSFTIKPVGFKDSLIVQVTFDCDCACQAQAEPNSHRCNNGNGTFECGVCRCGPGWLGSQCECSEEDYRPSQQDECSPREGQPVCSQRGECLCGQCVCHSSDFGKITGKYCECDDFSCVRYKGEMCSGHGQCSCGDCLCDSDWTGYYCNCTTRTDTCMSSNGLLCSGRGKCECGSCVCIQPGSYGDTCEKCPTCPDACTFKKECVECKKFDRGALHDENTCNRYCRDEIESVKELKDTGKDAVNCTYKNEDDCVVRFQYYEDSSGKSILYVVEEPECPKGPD

binding result: binds
B1: β43–63, 20-amino-acid peptide derived from the β chain of human fibrinogen E-fragment (peptide)
peptide: ARPAKAAATQKKVERKAPDA
notes: human fibrinogen β chain, N terminus of the β chain of FgnE, named amino acids 43–63; source: synthetic peptide (GenScript Corporation)

— article PMC2822935, “A novel fragment derived from the β chain of human fibrinogen, β43–63, is a potent inhibitor of activated endothelial cells in vitro and in vivo” (British Journal of Cancer, 2010)
